The text below walks through data of IntAct's records for PubMed 24910198.

B1: TIMELESS-interacting protein (Homo sapiens), Q9BVW5 (parent)
chain: MLEPQENGVIDLPDYEHVEDETFPPFPPPASPERQDGEGTEPDEESGNGAPVRVPPKRTVKRNIPKLDAQRLISERGLPALRHVFDKAKFKGKGHEAEDLKMLIRHMEHWAHRLFPKLQFEDFIDRVEYLGSKKEVQTCLKRIRLDLPILHEDFVSNNDEVAENNEHDVTSTELDPFLTNLSESEMFASELSRSLTEEQQQRIERNKQLALERRQAKLLSNSQTLGNDMLMNTPRAHTVEEVNTDEDQKEESNGLNEDILDNPCNDAIANTLNEEETLLDQSFKNVQQQLDATSRNITEAR
B2: SWI/SNF-related matrix-associated actin-dependent regulator of chromatin subfamily A-like protein 1 (Homo sapiens), Q9NZC9 (parent)
chain: MSLPLTEEQRKKIEENRQKALARRAEKLLAEQHQRTSSGTSIAGNPFQAKQGPSQNFPRESCKPVSHGVIFKQQNLSSSSNADQRPHDSHSFQAKGIWKKPEEMPTACPGHSPRSQMALTGISPPLAQSPPEVPKQQLLSYELGQGHAQASPEIRFTPFANPTHKPLAKPKSSQETPAHSSGQPPRDAKLEAKTAKASPSGQNISYIHSSSESVTPRTEGRLQQKSGSSVQKGVNSQKGKCVRNGDRFQVLIGYNAELIAVFKTLPSKNYDPDTKTWNFSMNDYSALMKAAQSLPTVNLQPLEWAYGSSESPSTSSEGQAGLPSAPSLSFVKGRCMLISRAYFEADISYSQDLIALFKQMDSRRYDVKTRKWSFLLEEHSKLIAKVRCLPQVQLDPLPTTLTLAFASQLKKTSLSLTPDVPEADLSEVDPKLVSNLMPFQRAGVNFAIAKGGRLLLADDMGLGKTIQAICIAAFYRKEWPLLVVVPSSVRFTWEQAFLRWLPSLSPDCINVVVTGKDRLTAGLINIVSFDLLSKLEKQLKTPFKVVIIDESHFLKNSRTARCRAAMPVLKVAKRVILLSGTPAMSRPAELYTQIIAVKPTFFPQFHAFGLRYCDAKRMPWGWDYSGSSNLGELKLLLEEAVMLRRLKSDVLSQLPAKQRKIVVIAPGRINARTRAALDAAAKEMTTKDKTKQQQKDALILFFNRTAEAKIPSVIEYILDLLESGREKFLVFAHHKVVLDAITQELERKHVQHIRIDGSTSSAEREDLCQQFQLSERHAVAVLSITAANMGLTFSSADLVVFAELFWNPGVLIQAEDRVHRIGQTSSVGIHYLVAKGTADDYLWPLIQEKIKVLAEAGLSETNFSEMTESTDYLYKDPKQQKIYDLFQKSFEKEGSDMELLEAAESFDPGSASGTSGSSSQNMGDTLDESSLTASPQKKRRFEFFDNWDSFTSPL

The variants in the first assay derive from B1. The settings on record: with rfa2_human RPA2, P15927.
Target sequence in this assay (P15927 whole entry): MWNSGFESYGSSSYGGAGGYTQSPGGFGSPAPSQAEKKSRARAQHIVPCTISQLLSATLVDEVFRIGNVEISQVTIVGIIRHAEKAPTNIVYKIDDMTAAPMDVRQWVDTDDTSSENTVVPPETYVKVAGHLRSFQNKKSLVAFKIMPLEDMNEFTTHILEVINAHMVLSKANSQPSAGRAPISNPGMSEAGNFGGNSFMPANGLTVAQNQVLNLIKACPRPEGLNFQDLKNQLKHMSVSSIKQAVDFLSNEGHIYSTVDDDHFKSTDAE
Take MLEPQENGVIDLPDYEHVEDETFPPFPPPASPERQDGEGTEPDEESGNGAPVRVPPKRTVKRNIPKLDAQRLISERGLPALRHVFDKAKFKGKGHEAEDLKMLIRHMEHWAHRLFPKLQFEDFIDRVEYLGSKKEVQTCLKRIRLDLPILHEDFVSNNDEVAENNEHDVTSTELDPFLTNLSESEMFASELSRSATEEQQQRIERNKQLALERRQAKLLSNSQTLGNDMLMNTPRAHTVEEVNTDEDQKEESNGLNEDILDNPCNDAIANTLNEEETLLDQSFKNVQQQLDATSRNITEAR [L195A]: the “effect of a mutation on the interaction” value was “decreasing interaction”.

Variants of B2 are the subject of a further assay. The settings on record: with rfa2_human RPA2, P15927.
Target sequence in this assay (P15927 whole entry): as the sequence (P15927 whole entry) above
Regarding R17A;Q18A;K19A, the “effect of a mutation on the interaction” value was “decreasing interaction”.

Variants of B2 are the subject of another assay. The settings on record: with rfa2_human RPA2, P15927. The source holds these as a separate data set.
Target sequence in this assay (P15927 whole entry): as the sequence (P15927 whole entry) above
Consider A20S;L21S, for which the “effect of a mutation on the interaction” value was “decreasing interaction”.

In another assay the parent is B2. The settings on record: with rfa2_human RPA2, P15927. This is another data set of the same source.
Target sequence in this assay (P15927 whole entry): as the sequence (P15927 whole entry) above
Take Q9A: the “effect of a mutation on the interaction” value was “decreasing interaction”.

The variants in the next assay derive from B2. To be noted: with rfa2_human RPA2, P15927. The source holds these as a separate data set.
Target sequence in this assay (P15927 whole entry): as the sequence (P15927 whole entry) above
For K27A, the “effect of a mutation on the interaction” value is given as “decreasing interaction”.

Variants of B2 are the subject of the next assay. To be noted: with rfa2_human RPA2, P15927. The source holds these as a separate data set.
Target sequence in this assay (P15927 whole entry): as the sequence (P15927 whole entry) above
Take L5A: the “effect of a mutation on the interaction” value is on record as “decreasing interaction”.

A further assay covers variants of B2. To be noted: with rfa2_human RPA2, P15927. The source holds these as a separate data set.
Consider N16A;R17A, for which the “effect of a mutation on the interaction” value is reported as “decreasing interaction”.

In a further assay the parent is B2. The settings on record: with rfa2_human RPA2, P15927. This is another data set of the same source.
Consider K12A;I13A, for which the “effect of a mutation on the interaction” value is “decreasing interaction”.
